Measured values: publication PMC3128127
Values joined by “and” are separate entries in the source; they are usually repeats but may differ in a detail not shown here. Identical values can stand only once.

Assays:
[1] = molecular target: HIV-1 GagPol, protease-inactive (D25A, PR-), from an expression plasmid (HIV-1); assay: incorporation into virus-like particles (fluorescence microscopy of pelleted, filtered particles)
[2] = molecular target: HIV-1 (NL4-3) GagPol, wild type, in authentic virions (HIV-1 (NL4-3)); assay: incorporation into virions (quantitative fluorescence-based Western blot, LI-COR)

Chain of DsRed-clathrin LC (P09496 whole entry): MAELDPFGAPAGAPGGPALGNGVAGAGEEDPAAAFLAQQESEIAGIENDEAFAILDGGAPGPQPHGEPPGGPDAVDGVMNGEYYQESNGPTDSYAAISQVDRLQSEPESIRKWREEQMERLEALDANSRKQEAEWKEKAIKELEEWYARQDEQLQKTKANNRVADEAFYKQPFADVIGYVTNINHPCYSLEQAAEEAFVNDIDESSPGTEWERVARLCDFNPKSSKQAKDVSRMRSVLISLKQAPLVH

Substance	percent of VLPs labelled with DsRed-clathrin LC [1] [%]	percent of the total clathrin HC of the culture present in virions [2]
DsRed-clathrin LC (from UniProt P09496 1-248) (natural protein)	40	
clathrin heavy chain (from UniProt Q00610 1-1675) (natural protein)		6% and 8%
